The values below are quoted from earlier work in article PMC6722209.

pKd: −log10 of the molar value.

The target of data set [1] is IgG1 Fc Fc (Homo sapiens) [IgG part: P01857]. Put plainly: fluorescence anisotropy. In general terms: Polarisation of emitted light reports the rotation of a fluorescent probe.
Data set [2] has the same target. Put plainly: ITC and SPR.

Chain of TRIM21 (P19474 whole entry): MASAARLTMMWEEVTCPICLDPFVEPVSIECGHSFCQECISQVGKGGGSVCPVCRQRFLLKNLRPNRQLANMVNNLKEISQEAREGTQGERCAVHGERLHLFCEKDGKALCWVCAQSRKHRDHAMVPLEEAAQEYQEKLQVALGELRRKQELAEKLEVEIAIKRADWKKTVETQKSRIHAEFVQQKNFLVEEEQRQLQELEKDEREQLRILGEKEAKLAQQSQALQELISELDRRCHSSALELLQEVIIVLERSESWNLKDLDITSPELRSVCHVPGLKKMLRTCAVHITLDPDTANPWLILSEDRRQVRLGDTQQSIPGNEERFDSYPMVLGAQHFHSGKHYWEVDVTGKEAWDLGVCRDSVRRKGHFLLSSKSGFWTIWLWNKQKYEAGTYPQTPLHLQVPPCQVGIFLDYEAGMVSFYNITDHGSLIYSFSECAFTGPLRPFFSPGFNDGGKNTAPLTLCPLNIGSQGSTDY
Chain of TRIM21 PRYSPRY (P19474 268-465): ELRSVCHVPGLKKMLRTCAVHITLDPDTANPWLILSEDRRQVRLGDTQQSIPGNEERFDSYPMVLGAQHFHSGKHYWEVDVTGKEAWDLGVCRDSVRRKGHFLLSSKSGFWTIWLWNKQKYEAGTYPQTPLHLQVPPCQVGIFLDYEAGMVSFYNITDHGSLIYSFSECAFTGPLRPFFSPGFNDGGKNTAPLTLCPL

For TRIM21 (from UniProt P19474), the negative logarithm of the Kd (pKd) in data set [1] was 9.22.

Regarding TRIM21 PRYSPRY (from UniProt P19474), in data set [2], the negative logarithm of the Kd (pKd) was 6.76.

As usually defined, the pKd is the Kd on a negative log10 scale, so that one unit is a factor of ten.
